Consider 1 substance from article PMC9986714.

For assay [1], the target named is Fasciola hepatica cathepsin L2 (Fasciola hepatica).
The target of assay [2] is Human cathepsin K (human) (UniProt P43235).
For assay [3], the target named is Fasciola hepatica cathepsin L3 (Fasciola hepatica).
The target of assay [4] is Carica papaya papain (Carica papaya) (UniProt P00784).
Assay [5] addresses Human cathepsin V (human) (UniProt O60911).
The target of assay [6] is Human cathepsin L (human).
Assay [7] deals with Cathepsin S (human) (UniProt P25774).
The target in assay [8] is Bovine cathepsin C (bovine).
The target of assay [9] is Bovine cathepsin H (bovine).
The target of assay [10] is Cathepsin F (human) (UniProt Q9UBX1).
The target of assay [11] is Cathepsin B (human).
The target in assay [12] is Fasciola hepatica cathepsin L1 (Fasciola hepatica).
Assay [13] concerns the target Cathepsin X (human) (UniProt Q9UBR2).

Sequence of Human cathepsin K (human) (P43235 115-329): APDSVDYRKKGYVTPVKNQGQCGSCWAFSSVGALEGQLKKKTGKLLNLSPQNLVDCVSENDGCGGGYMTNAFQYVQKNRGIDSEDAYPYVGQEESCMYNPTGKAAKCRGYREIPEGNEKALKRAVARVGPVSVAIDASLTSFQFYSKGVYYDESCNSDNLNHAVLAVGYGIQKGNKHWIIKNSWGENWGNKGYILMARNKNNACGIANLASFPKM
Sequence of Cathepsin X (human) (Q9UBR2 62-303): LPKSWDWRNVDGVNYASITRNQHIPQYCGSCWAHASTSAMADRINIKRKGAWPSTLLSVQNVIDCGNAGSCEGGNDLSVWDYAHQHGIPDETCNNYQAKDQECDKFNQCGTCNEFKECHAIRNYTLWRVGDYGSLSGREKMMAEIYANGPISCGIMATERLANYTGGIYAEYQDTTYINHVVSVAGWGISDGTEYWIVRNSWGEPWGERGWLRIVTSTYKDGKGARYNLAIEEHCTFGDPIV
Sequence of Human cathepsin V (human) (O60911 114-334): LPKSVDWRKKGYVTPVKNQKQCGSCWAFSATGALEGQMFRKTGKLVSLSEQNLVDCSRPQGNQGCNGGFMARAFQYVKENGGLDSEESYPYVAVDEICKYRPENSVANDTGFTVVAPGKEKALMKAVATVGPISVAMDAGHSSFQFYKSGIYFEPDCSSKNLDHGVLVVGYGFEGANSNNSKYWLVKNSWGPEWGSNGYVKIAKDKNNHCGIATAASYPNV
Sequence of Cathepsin F (human) (Q9UBX1 271-484): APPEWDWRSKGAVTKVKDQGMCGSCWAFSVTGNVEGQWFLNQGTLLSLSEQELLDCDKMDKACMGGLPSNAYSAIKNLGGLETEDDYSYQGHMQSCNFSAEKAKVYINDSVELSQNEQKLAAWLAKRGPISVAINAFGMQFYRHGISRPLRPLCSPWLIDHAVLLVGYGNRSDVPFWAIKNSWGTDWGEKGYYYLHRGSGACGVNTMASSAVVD
Sequence of Carica papaya papain (Carica papaya) (P00784 134-345): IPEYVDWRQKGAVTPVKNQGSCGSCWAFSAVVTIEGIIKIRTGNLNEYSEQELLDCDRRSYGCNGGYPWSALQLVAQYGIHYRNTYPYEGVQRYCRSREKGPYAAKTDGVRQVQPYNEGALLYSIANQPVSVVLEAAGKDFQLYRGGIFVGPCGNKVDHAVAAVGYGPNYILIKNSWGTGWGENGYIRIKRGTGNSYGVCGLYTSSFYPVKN
Sequence of Cathepsin S (human) (P25774 115-331): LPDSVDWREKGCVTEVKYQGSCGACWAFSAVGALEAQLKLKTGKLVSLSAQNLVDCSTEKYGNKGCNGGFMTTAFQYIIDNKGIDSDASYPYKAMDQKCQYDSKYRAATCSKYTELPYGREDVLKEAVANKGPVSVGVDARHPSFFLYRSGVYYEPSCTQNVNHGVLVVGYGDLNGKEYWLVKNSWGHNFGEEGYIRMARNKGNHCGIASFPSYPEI

Substance “Fasciola hepatica cystatin-like stefin 2 (FhCyLS-2), recombinant (natural protein)” displayed an IC50 of inhibition of protease activity (kinetic assay, 20 μM Z-Phe-Arg-AMC, 5 nM FhCL2, 50 mM MES pH 6.0, 37 °C, 15 min preincubation) in [1] of 10 nM. The substance further showed an IC50 of inhibition of protease activity (kinetic assay, 4.3 μM Z-Phe-Arg-AMC, 0.2 nM cathepsin K, 100 mM Na acetate pH 5.5, 37 °C, 15 min preincubation) in [2] of 8.6 nM. In assay [3], the IC50 of inhibition of protease activity (kinetic assay, 20 μM Z-Gly-Pro-Arg-AMC, 6 nM FhCL3, 50 mM MES pH 5.5, 37 °C, 15 min preincubation) is 18 nM. The IC50 of inhibition of protease activity (kinetic assay, 100 μM Z-Phe-Arg-AMC, 0.5 nM papain, 100 mM Na acetate pH 5.5, 37 °C, 15 min preincubation) in assay [4] is 1.1 nM. Besides, the IC50 of inhibition of protease activity (kinetic assay, 3.6 μM Z-Phe-Arg-AMC, 0.1 nM cathepsin V, 100 mM Na acetate pH 5.5, 37 °C, 15 min preincubation) in [5] turned out to be 5.9 nM. The substance also registered an IC50 of inhibition of protease activity (kinetic assay, 2.5 μM Z-Phe-Arg-AMC, 0.2 nM cathepsin L, 100 mM Na acetate pH 5.5, 37 °C, 15 min preincubation) in [6] of 0.92 nM. In addition, the IC50 of inhibition of protease activity (kinetic assay, 17 μM Z-Val-Val-Arg-AMC, 0.1 nM cathepsin S, 50 mM MES pH 6.5, 37 °C, 15 min preincubation) in assay [7] turned out to be 1.1 nM. Further, the IC50 of inhibition of protease activity (kinetic assay, 130 μM H-Gly-Arg-AMC, 0.4 nM cathepsin C, 100 mM Na acetate pH 5.5 with 50 mM NaCl, 37 °C, 15 min preincubation) in assay [8] is 66 nM. This substance also yielded an IC50 of inhibition of protease activity (kinetic assay, 100 μM H-Arg-AMC, 1.9 nM cathepsin H, 50 mM MES pH 6.5, 37 °C, 15 min preincubation) in assay [9] of 2.5 nM. The substance further came in with an IC50 of inhibition of protease activity (kinetic assay, 27 μM Z-Phe-Arg-AMC, 1.2 nM cathepsin F, 100 mM Na acetate pH 5.5, 37 °C, 15 min preincubation) in [10] of 49 nM. For the same substance, in assay [11], the IC50 of inhibition of protease activity (kinetic assay, 53 μM Z-Phe-Arg-AMC, 0.2 nM cathepsin B, 100 mM Na acetate pH 5.5, 37 °C, 15 min preincubation) was determined as 2.1 nM. Further, the IC50 of inhibition of protease activity (kinetic assay, 20 μM Z-Phe-Arg-AMC, 2 nM FhCL1, 50 mM MES pH 5.5, 37 °C, 15 min preincubation) in assay [12] turned out to be 2.5 nM. Moreover, in assay [13], the IC50 of inhibition of protease activity (kinetic assay, 87 μM Abz-Phe-Arg-Phe(NO2)-OH, 1.2 nM cathepsin X, 100 mM Na acetate pH 5.0, 37 °C, 15 min preincubation) was 8.4 µM.
